Results reported in patent US20240335558A1, “ISOLATED POLYPEPTIDE AND USE THEREOF” (GLYCO-THERAPY BIOTECHNOLOGY CO., LTD., priority 2021, published 2024).

Legend:
Type in all cases: biochemical
[1] = system: Trastuzumab-(GalNAzβ1,4)GlcNAc; test: Transfer of GDP-FAmP4Biotin to Trastuzumab-(GalNAzβ1,4)GlcNAc by different HpFTs; conditions: donor GDP-FAmP4Biotin 1 mM, enzyme 0.5 mg/mL, 30° C., 3 h; FIG. 4
[2] = system: Trastuzumab-(Fucα1,6)(GalNAzβ1,4)GlcNAc; test: Transfer of GDP-FAmP4Biotin to Trastuzumab-(Fucα1,6)(GalNAzβ1,4)GlcNAc by different HpFTs; conditions: donor GDP-FAmP4Biotin 1 mM, enzyme 0.5 mg/mL, 30° C., 3 h; FIG. 3
[3] = system: Trastuzumab-(Fucα1,6)(Galβ1,4)GlcNAc; test: Transfer of GDP-FAmP4Biotin to Trastuzumab-(Fucα1,6)(Galβ1,4)GlcNAc by different HpFTs; conditions: donor GDP-FAmP4Biotin 1 mM, enzyme 0.5 mg/mL, 30° C., 1 h; FIG. 2
Protocol: To 40 mM Tris-HCl (pH 7.5) buffer were added Trastuzumab-(Fucα1,6)(Galβ1,4)GlcNAc (2 mg/mL final), GDP-FAmP4Biotin (1 mM final), MgCl2 (20 mM final), and different HpFT enzymes (HpFT-4HR, HpFT-4HR(M4), HpFT-4HR(M7), HpFT-6HR, HpFT-3HR, HpFT-2HR, HpFT-1HR or HpFT-0HR) (0.5 mg/mL final) in sequence, and the resulting mixed solution was allowed to react at 30° C. for 1 h. Three parallels were set up for each group. After the reaction time point was reached, to the reaction solution was added 10 mM LacNA, and the reaction was terminated by a desalting column (Zeba™ Spin Desalting Columns/2 ml/40K, Thermo Fisher Scientific), and finally mass spectrometry was carried out and % of conversion was calculated. % of conversion=(MAR0 peak intensity*0+MAR1peak intensity*1+MAR2 peak intensity*2)/2* (MAR0 peak intensity+MAR1 peak intensity+MAR2 peak intensity)*100%.

Trastuzumab-G2F = test: Transfer of GDP-FAmP4Biotin to Trastuzumab-G2F by different HpFTs (% of conversion by MS); conditions: donor GDP-FAmP4Biotin 1 mM, enzyme 0.5 mg/mL, 30° C., 3 h; FIG. 1
Protocol: To 40 mM Tris-HCl (pH 7.5) buffer were added Trastuzumab-G2F (2 mg/mL final), GDP-FAmP4Biotin (1 mM final), MgCl2 (20 mM final), and different HpFT enzymes (HpFT-4HR, HpFT-4HR(M4), HpFT-4HR(M7), HpFT-6HR, HpFT-3HR, HpFT-2HR, HpFT-1HR, or HpFT-0HR) (0.5 mg/mL final) in sequence, and the resulting mixed solution was allowed to react at 30° C. for 3 h. Three parallels were set up for each group. After the reaction time point was reached, to the reaction solution was added 10 mM LacNAc (N-acetyl-D-lactosamine), and the reaction was terminated by a desalting column (Zeba™ Spin Desalting Columns/2 ml/40K, Thermo Fisher Scientific), and finally mass spectrometry was carried out and % of conversion was calculated. % of conversion=(MAR0 peak intensity*0+MAR1peak intensity*1+MAR2 peak intensity*2+MAR3 peak intensity*3+MAR4 peak intensity*4)/4* (MAR0 peak intensity+MAR1 peak intensity+MAR2 peak intensity+MAR3 peak intensity+MAR4 peak intensity)*100%.

Molecule	catalytic activity as compared with HpFT-4HR (% of conversion) [1]	catalytic activity as compared with HpFT-4HR (% of conversion) [2]	catalytic activity as compared with HpFT-4HR (% of conversion) [3]	catalytic activity as compared with HpFT-4HR (% of conversion) (Trastuzumab-G2F)	catalytic activity among the HpFT variants [1]	catalytic activity among the HpFT variants [2]
HpFT-3HR: H. pylori α-1,3-fucosyltransferase variant: catalytically active domain, three heptapeptide repeat sequences and C-terminus fused His tag (protein, Catalytically active domain of Helicobacter pylori Alpha-(1,3)-fucosyltransferase (GenBank No.AAD07710.1) with 3 heptapeptide repeats and a C-terminal His tag) MFQPLLDAFIESASIEKMVSKSPPPPLKIAVANWWGDEEIKEFKKSVLYFILSQRYAITLHQNPNESSDLVFSNPLGAARKILSYQNTKRVFYTGENESPNFNLFDYAIGFDELDFNDRYLRMPLYYAHLHYEAELVNDTTAPYKLKDNSLYALKKPSHHFKENHPNLCAVVNDESDLLKRGFASFVASNANAPMRNAFYDALNSIEPVTGGGSVRNTLGYKVGNKSEFLSQYKFNLCFENSQGYGYVTEKILDAYFSHTIPIYWGSPSVAKDFNPKSFVNVHDFNNFDEAIDYIKYLHTHPNAYLDMLYENPLNTLDGKAYFYQDLSFKKILDFFKTILENDTIYHNNPFIFYRDLHEPLISIDDLRVNYDDLRVNYDDLRVNYLEHHHHHH	significantly improved catalytic activity	significantly improved catalytic activity	significantly improved catalytic activity	significantly improved catalytic activity		
HpFT-6HR: HpFT variant: catalytically active domain, six heptapeptide repeat sequences and C-terminus fused His tag (protein, Catalytically active domain of Helicobacter pylori Alpha-(1,3)-fucosyltransferase (GenBank No.AAD07710.1) with 6 heptapeptide repeats and a C-terminal His tag) MFQPLLDAFIESASIEKMVSKSPPPPLKIAVANWWGDEEIKEFKKSVLYFILSQRYAITLHQNPNESSDLVFSNPLGAARKILSYQNTKRVFYTGENESPNFNLFDYAIGFDELDFNDRYLRMPLYYAHLHYEAELVNDTTAPYKLKDNSLYALKKPSHHFKENHPNLCAVVNDESDLLKRGFASFVASNANAPMRNAFYDALNSIEPVTGGGSVRNTLGYKVGNKSEFLSQYKFNLCFENSQGYGYVTEKILDAYFSHTIPIYWGSPSVAKDFNPKSFVNVHDFNNFDEAIDYIKYLHTHPNAYLDMLYENPLNTLDGKAYFYQDLSFKKILDFFKTILENDTIYHNNPFIFYRDLHEPLISIDDLRVNYDDLRVNYDDLRVNYDDLRVNYDDLRVNYDDLRVNYLEHHHHHH	little activity change	little activity change	no obvious activity change			
HpFT-0HR: HpFT variant: catalytically active domain and C-terminus fused His tag, no heptapeptide repeat (protein, Catalytically active domain of Helicobacter pylori Alpha-(1,3)-fucosyltransferase (GenBank No.AAD07710.1) with a C-terminal His tag) MFQPLLDAFIESASIEKMVSKSPPPPLKIAVANWWGDEEIKEFKKSVLYFILSQRYAITLHQNPNESSDLVFSNPLGAARKILSYQNTKRVFYTGENESPNFNLFDYAIGFDELDFNDRYLRMPLYYAHLHYEAELVNDTTAPYKLKDNSLYALKKPSHHFKENHPNLCAVVNDESDLLKRGFASFVASNANAPMRNAFYDALNSIEPVTGGGSVRNTLGYKVGNKSEFLSQYKFNLCFENSQGYGYVTEKILDAYFSHTIPIYWGSPSVAKDFNPKSFVNVHDFNNFDEAIDYIKYLHTHPNAYLDMLYENPLNTLDGKAYFYQDLSFKKILDFFKTILENDTIYHNNPFIFYRDLHEPLISILEHHHHHH	significantly decreased activity	significantly decreased activity	significantly decreased activity			
HpFT-1HR: H. pylori α-1,3-fucosyltransferase variant: catalytically active domain, a heptapeptide repeat sequence and C-terminus fused His tag (protein, Catalytically active domain of Helicobacter pylori Alpha-(1,3)-fucosyltransferase (GenBank No.AAD07710.1) with 1 heptapeptide repeat and a C-terminal His tag) MFQPLLDAFIESASIEKMVSKSPPPPLKIAVANWWGDEEIKEFKKSVLYFILSQRYAITLHQNPNESSDLVFSNPLGAARKILSYQNTKRVFYTGENESPNFNLFDYAIGFDELDFNDRYLRMPLYYAHLHYEAELVNDTTAPYKLKDNSLYALKKPSHHFKENHPNLCAVVNDESDLLKRGFASFVASNANAPMRNAFYDALNSIEPVTGGGSVRNTLGYKVGNKSEFLSQYKFNLCFENSQGYGYVTEKILDAYFSHTIPIYWGSPSVAKDFNPKSFVNVHDFNNFDEAIDYIKYLHTHPNAYLDMLYENPLNTLDGKAYFYQDLSFKKILDFFKTILENDTIYHNNPFIFYRDLHEPLISIDDLRVNYLEHHHHHH	significantly improved catalytic activity	significantly improved catalytic activity	significantly improved catalytic activity	significantly improved catalytic activity	relatively high catalytic activity	relatively high catalytic activity
